Data taken from patent US20250282866A1 (VIGIL NEUROSCIENCE, published 2025).
Changes are numbered by the printed parent chain.

B1: V31 (antibody, V domains shown)
VH: EVQLVQSGAEVKKPGESLKISCKGSGYSFTSYWIAWVRQMPGKGLEWMGIIYPGDSETRYSPSFQGQVTISADKSISTAYLQWSSLKASDTAMYFCARQRTFYYDSSDYFDYWGQGTLVTVSS
VL: DIQMTQSPSSVSASVGDRVTITCRASQGISSWLAWYQQKPGKAPKLLIYAASSLQNGVPSRFSGSGSGTDFTLTISSLQPEDFATYFCQQADSFPRTFGQGTKLEIK
B2: V89 (antibody, V domains shown)
VH: B1 VH with E57D
VL: B1 VL with F94H
B3: V84 (antibody, V domains shown)
VH: B1 VH with S28G, E57D, F110S
VL: B1 VL with A50G
B4: V86 (antibody, V domains shown)
VH: B1 VH with T30G, I34L, E57D, Q65E, Q99S
VL: B1 VL with L54R
B5: V77 (antibody, V domains shown)
VH: B1 VH with E57D
VL: B1 VL with L54R
B6: V61 (antibody, V domains shown)
VH: B1 VH with T30S, E57D, S61N, Q99G
VL: B1 VL with Q55V, F94L
B7: V65 (antibody, V domains shown)
VH: B1 VH with E57D, Q99S
VL: B1 VL
B8: V75 (antibody, V domains shown)
VH: B1 VH with E57D, Q99G
VL: B1 VL with N56A, F94Y
B9: V76 (antibody, V domains shown)
VH: B1 VH with T30G, E57D, S63E, F110S
VL: B1 VL with N56K, T69R
B10: V64 (antibody, V domains shown)
VH: B1 VH with T30Q, E57D, Q99G
VL: B1 VL with Q55A, F94Y
B11: V63 (antibody, V domains shown)
VH: B1 VH with T30R, E57D, Q99S
VL: B1 VL with N56R, S93R
B12: V88 (antibody, V domains shown)
VH: B1 VH with T30G, E57D
VL: B1 VL with S53R, N56R, F94S
B13: V74 (antibody, V domains shown)
VH: B1 VH with T30A, E57D, T58V, Q99G
VL: B1 VL with N56L
B14: V62 (antibody, V domains shown)
VH: B1 VH with T30G, E57D, S61A, D108G
VL: B1 VL with N56R, Q89G
B15: V87 (antibody, V domains shown)
VH: B1 VH with T30R, E57D, T58V, S63D, Q99S
VL: B1 VL with N56W
B16: V73 (antibody, V domains shown)
VH: B1 VH with T30G, E57D, S63G, Q99G
VL: B1 VL with L54R, F94Y
B17: V85 (antibody, V domains shown)
VH: B1 VH with T30R, I50T, E57D, Q99S
VL: B1 VL with L54R
B18: V72 (antibody, V domains shown)
VH: B1 VH with A35G, E57D, Q99G
VL: B1 VL with Q55V, F94Y

How the values were obtained:
human TREM2 [1] = molecular target: T1, human TREM2 (human, UniProt Q9NZC2 19-174, limits assumed); assay: 1st screen (110 nM or 10 nM)
T1 construct: also called triggering receptor expressed on myeloid cells 2
T1 sequence: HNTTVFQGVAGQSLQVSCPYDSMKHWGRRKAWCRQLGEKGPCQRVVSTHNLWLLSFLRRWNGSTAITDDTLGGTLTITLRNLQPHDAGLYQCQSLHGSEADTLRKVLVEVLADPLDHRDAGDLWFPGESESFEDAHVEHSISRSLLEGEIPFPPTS

human TREM2 [2] = molecular target: T1, human TREM2; assay: 2nd screen, printed under 10 nM
human TREM2 [3] = molecular target: T1, human TREM2; assay: 2nd screen 2 nM
human TREM2 [4] = molecular target: T1, human TREM2; assay: 2nd screen 10 nM

Binder | Binding Signal (fold over 6E7 Parental antibody) (human TREM2 [1]) | Binding Signal (fold over 6E7 Parental antibody) (human TREM2 [2]) | Binding Signal (fold over 6E7 Parental antibody) (human TREM2 [3]) | Binding Signal (fold over 6E7 Parental antibody) (human TREM2 [4])
B1 | 0.61 fold | 0.73 fold |  | 
B2 | 1.33 fold |  | 0.94 fold | 1.46 fold
B3 | 1.44 fold |  | 1.45 fold | 1.62 fold
B4 | 4.8 fold |  | 5.17 fold | 5.02 fold
B5 | 1.43 fold |  | 0.83 fold | 1.38 fold
B6 | 5.08 fold |  | 3.63 fold | 5.22 fold
B7 | 2.05 fold |  | 1.29 fold | 2.75 fold
B8 | 4.64 fold |  | 3.74 fold | 4.52 fold
B9 | 4.57 fold |  | 4.34 fold | 4.93 fold
B10 | 5.41 fold |  | 4.88 fold | 5.48 fold
B11 | 3.76 fold |  | 4.91 fold | 3.71 fold
B12 | 4.92 fold |  | 5.57 fold | 5.3 fold
B13 | 3.94 fold |  | 2.54 fold | 4.01 fold
B14 | 2.49 fold |  | 1.87 fold | 2.89 fold
B15 | 3.84 fold |  | 4.86 fold | 3.93 fold
B16 | 5.12 fold |  | 4.17 fold | 5.44 fold
B17 | 5.41 fold |  | 5.41 fold | 5.37 fold
B18 | 3.64 fold |  | 2.5 fold | 4.01 fold
